Data on seven sequences can be found in the Immune Epitope Database (IEDB).

Assay [1] has as its target HLA-B*58:01. Nature of the assay: IEDB peptide-MHC binding, purified MHC/competitive/fluorescence; filed as Kd, often an IC50 or EC50 that approximates it; ≥ and ≤ were set here for values at or beyond the usual limits of such assays. The following applies: source organism: Escherichia coli F11.
Assay [2] deals with HLA-B*44:02. The assay is described as follows: IEDB peptide-MHC binding, purified MHC/competitive/fluorescence; ≥ and ≤ were set here for values at or beyond the usual limits of such assays. As to conditions: source organism: Homo sapiens.
In assay [3] the target is HLA-B*40:02. Described as above.
Assay [4] addresses HLA-B*40:01. Nature of the assay: IEDB peptide-MHC binding, purified MHC/competitive/fluorescence; filed as Kd, often an IC50 or EC50 that approximates it; ≥ and ≤ were set here for values at or beyond the usual limits of such assays. As to conditions: source organism: Bacillus cereus G9241.
For assay [5], the target named is HLA-A*02:05. The assay is described as follows: IEDB peptide-MHC binding, purified MHC/competitive/radioactivity; filed as Kd, often an IC50 or EC50 that approximates it; ≥ and ≤ were set here for values at or beyond the usual limits of such assays. The following applies: source organism: Homo sapiens.
The target of assay [6] is HLA-A*69:01. The assay is described as follows: IEDB peptide-MHC binding, purified MHC/competitive/fluorescence; filed as Kd, often an IC50 or EC50 that approximates it; ≥ and ≤ were set here for values at or beyond the usual limits of such assays. As to conditions: source organism: Giardia lamblia ATCC 50803.
The target of assay [7] is HLA-A*02:12. The assay is described as above. The following applies: source organism: Giardia lamblia ATCC 50803.
Assay [8] addresses HLA-A*25:01. The assay is described as above. As to conditions: source organism: Giardia lamblia ATCC 50803.
For assay [9], the target named is HLA-B*39:01. The description is as above.
The target of assay [10] is HLA-A*29:02. The description is as above. As to conditions: source organism: Giardia lamblia ATCC 50803.
Assay [11] addresses HLA-A*02:16. The assay is described as above. As to conditions: source organism: Giardia lamblia ATCC 50803.
For assay [12], the target named is HLA-A*03:01. The description is as above. The following applies: source organism: Giardia lamblia ATCC 50803.
In assay [13] the target is HLA-B*46:01. The assay is described as above. The following applies: source organism: Giardia lamblia ATCC 50803.
Assay [14] has as its target HLA-B*27:03. The description is as above. The following applies: source organism: Giardia lamblia ATCC 50803.
Assay [15] deals with HLA-A*02:03. The description is as above. The following applies: source organism: Giardia lamblia ATCC 50803.
Assay [16] addresses HLA-A*02:19. The description is as above. As to conditions: source organism: Giardia lamblia ATCC 50803.
Assay [17] deals with HLA-A*02:01. The assay is described as above. The following applies: source organism: Giardia lamblia ATCC 50803.
In assay [18] the target is HLA-A*68:02. Described as above. The following applies: source organism: Giardia lamblia ATCC 50803.
For assay [19], the target named is HLA-A*26:01. The assay is described as above. As to conditions: source organism: Giardia lamblia ATCC 50803.
The target in assay [20] is HLA-A*25:01. Nature of the assay: IEDB peptide-MHC binding, purified MHC/competitive/fluorescence; ≥ and ≤ were set here for values at or beyond the usual limits of such assays. The following applies: source organism: Monodelphis domestica.
Assay [21] deals with HLA-B*58:01. Described as above. As to conditions: source organism: Monodelphis domestica.
Assay [22] deals with HLA-A*31:01. The assay is described as above. The following applies: source organism: Monodelphis domestica.
Assay [23] deals with HLA-B*08:01. The assay is described as above. As to conditions: source organism: Monodelphis domestica.
Assay [24] addresses HLA-B*37:01. The assay is described as above. As to conditions: source organism: Monodelphis domestica.
For assay [25], the target named is HLA-A*29:02. Described as above. As to conditions: source organism: Monodelphis domestica.
Assay [26] concerns the target HLA-A*03:01. The description is as above. The following applies: source organism: Monodelphis domestica.
Assay [27] has as its target HLA-B*35:01. Described as above. As to conditions: source organism: Monodelphis domestica.
For assay [28], the target named is HLA-B*14:02. The assay is described as above. As to conditions: source organism: Monodelphis domestica.
The target in assay [29] is HLA-B*44:03. The assay is described as above. As to conditions: source organism: Monodelphis domestica.
Assay [30] concerns the target HLA-B*18:01. Described as above. As to conditions: source organism: Monodelphis domestica.
Assay [31] addresses HLA-B*07:02. The description is as above. The following applies: source organism: Monodelphis domestica.
The target of assay [32] is HLA-A*01:01. The assay is described as above. The following applies: source organism: Monodelphis domestica.
Assay [33] has as its target HLA-B*53:01. The description is as above. The following applies: source organism: Monodelphis domestica.
The target of assay [34] is HLA-A*02:01. The assay is described as above. The following applies: source organism: Monodelphis domestica.
Assay [35] has as its target HLA-A*24:02. The assay is described as above. The following applies: source organism: Monodelphis domestica.
Assay [36] addresses HLA-A*68:02. The assay is described as above. The following applies: source organism: Monodelphis domestica.
For assay [37], the target named is HLA-A*11:01. The assay is described as above. As to conditions: source organism: Monodelphis domestica.
The target in assay [38] is HLA-B*51:01. Described as above. As to conditions: source organism: Monodelphis domestica.
In assay [39] the target is HLA-B*27:05. The assay is described as follows: IEDB peptide-MHC binding, purified MHC/competitive/fluorescence; filed as Kd, often an IC50 or EC50 that approximates it; ≥ and ≤ were set here for values at or beyond the usual limits of such assays. As to conditions: source organism: Shigella boydii CDC 3083-94.

Usually Kd stands for the concentration at which binding is half-saturated. For QHFGLIPQW, the Kd in assay [1] amounted to 143 nM.

Broadly, the IC50 is the concentration needed to halve the response being measured. A lower IC50 goes with higher potency. As for SDFQVHFL, the figures for the IC50 in assay [2] and in assay [3] (source organism: Homo sapiens) were ≥ 20 µM and 12.4 nM, respectively.

Regarding GEIVLCHVL, the Kd in assay [4] came to 5 nM.

As to RLFPGLAIKI, the Kd in [5] was 90 nM.

On to KVSWRWMVY, for which the Kd is ≥ 20 µM in [6]; ≥ 20 µM in [7]; ≥ 20 µM in assay [8]; ≥ 20000 nM in [9] (source organism: Giardia lamblia ATCC 50803); 148 nM in [10]; ≥ 20 µM in [11]. The equilibrium dissociation constant (Kd) in assay [12] is 4.3 nM; in assay [13], ≥ 20 µM; in assay [14] it was ≥ 20 µM; in assay [15], ≥ 20 µM; in assay [16] it was ≥ 20 µM; in assay [17] it was ≥ 20 µM. Besides, the Kd in assay [18] and in assay [19] was ≥ 20 µM throughout.

In the case of FLLPILSQIYT, the IC50 in [20] is ≥ 20 µM; in [21], ≥ 20 µM; in assay [22] it was ≥ 20 µM; in assay [23], ≥ 20 µM; in [24], ≥ 20 µM; in assay [3] (source organism: Monodelphis domestica) it was ≥ 20000 nM. Moreover, the IC50 is 206 nM in assay [25]; ≥ 20 µM in assay [26]; 206 nM in [27]; ≥ 20 µM in assay [28]; ≥ 20 µM in [29]; ≥ 20 µM in assay [30]. The IC50 is ≥ 20 µM in assay [31]; ≥ 20 µM in assay [32]; ≥ 20 µM in assay [33]; 5.3 nM in assay [34]; ≥ 20 µM in [35]; ≥ 20 µM in [36]. The IC50 in assay [37] and in [38] was ≥ 20 µM throughout.

Take WRLVYASAV: the Kd in [9] (source organism: Shigella boydii CDC 3083-94) was 11.8 nM; in assay [39], 75.3 nM.
